The record followed here is article PMC9054839.

Assay [1] addresses kindlin-2 (endogenous, fibroblasts) [mouse (endogenous in talin^1/2dko fibroblasts)]. The experiment in a line: anti-GFP immunoprecipitation, western blot quantification. Particulars: talin1/2dKO fibroblasts, N = 3; parent: 1; read off a plot.
Assay [2] deals with GST-integrin beta3 cytoplasmic tail (UniProt P05106). The experiment in a line: SPR; GST-integrin beta3CT amine-coupled to CM5, talinH or tlnM3 (0–125 nM) flowed over; 50 mM sodium phosphate pH 6.8, 150 mM NaCl, 0.05% Tween 20, 0.03% BSA, 25 °C. On the technique in general: In SPR one partner is held on a chip, and binding of the other changes the refractive index at the surface.

The target in a further assay is paxillin 1–160 (human) (UniProt P49023). The experiment in a line: SPR; paxillin 1–160 amine-coupled to CM5, talin subdomains (0–12 μM) flowed over; 50 mM sodium phosphate pH 6.8, 150 mM NaCl, 25 °C; talin-R1–R4 fitted by a two-state model.
Assay [3] has as its target constitutively activated full-length talin mutant tlnM3 (M319A, T1767L, E1770K) (mouse) (UniProt P26039). The assay is described as follows: SPR; tlnM3 amine-coupled to CM5, tlnM3 flowed over; 150 mM salt, pH 6.8, 25 °C; intermolecular tlnM3/tlnM3 interaction (dimerization).

Chain of paxillin 1–160 (human) (P49023 1-160): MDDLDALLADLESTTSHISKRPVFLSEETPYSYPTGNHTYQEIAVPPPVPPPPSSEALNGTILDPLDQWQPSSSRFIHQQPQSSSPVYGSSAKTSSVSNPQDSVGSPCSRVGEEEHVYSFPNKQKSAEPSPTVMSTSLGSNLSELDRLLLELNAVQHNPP
Chain of GST-integrin beta3 cytoplasmic tail (P05106 742-788): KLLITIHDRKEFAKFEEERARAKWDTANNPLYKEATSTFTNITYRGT

Turning to “C-terminally ypet-tagged full-length talin WT mutant A680E; K687E [mouse] / kindlin-2 (endogenous, fibroblasts) [mouse (endogenous in talin^1/2dko fibroblasts)] chain 1 A680E, chain 1 K687E”, the ratio to parent in assay [1] is 0.49.
In the case of “talin N-terminal head domain (talin-H) (domain or fragment)”, the Kd in assay [2] was determined as 29.7 nM.
In assay [2], “talin deletion mutant without C-terminal dimerization domain (from UniProt P26039 1-2482) (domain or fragment)” returned a Kd of 36 nM.
In the case of talin-R11 (domain or fragment), in the assay with paxillin 1–160 (human), the equilibrium dissociation constant (Kd) came out at 12700 nM.
Consider “C-terminally ypet-tagged full-length talin WT mutant T2126E; K2133E [mouse] / kindlin-2 (endogenous, fibroblasts) [mouse (endogenous in talin^1/2dko fibroblasts)] chain 1 T2126E, chain 1 K2133E”, for which the ratio to parent in assay [1] worked out at 0.81.
Take “constitutively activated full-length talin mutant tlnM3 (M319A, T1767L, E1770K), P26039 1-2541”: in assay [3], the equilibrium dissociation constant (Kd) turned out to be 1820 nM.
In the assay with paxillin 1–160 (human), talin-R1–R4 (domain or fragment) yielded a Kd of 153 nM and a stoichiometry N of 1.
“C-terminally ypet-tagged full-length talin WT mutant A680E; K687E; T2126E; K2133E [mouse] / kindlin-2 (endogenous, fibroblasts) [mouse (endogenous in talin^1/2dko fibroblasts)] chain 1 A680E, chain 1 K687E, chain 1 T2126E, chain 1 K2133E”: the ratio to parent in assay [1] worked out at 0.31.

The term Kd denotes the free concentration of one partner at which half of the binding sites on the other are occupied at equilibrium, for simple one-to-one binding. A word on the stoichiometry N: it is a count of units in the complex or per binding partner.
